Biological target: GAL4-PGC-1β (yeast; mouse) (UniProt P04386)
Test: cell-based or functional assay

transcriptional activity of PGC-1β in a cotransfection assay (luciferase, BOSC cells, FIG. 9A): 3 fold
Substance: Flag-tagged HCF

Reference: patent US20030124598A1
